From article PMC6086383

Substrate: CC(=O)SCC[N+](C)(C)C
Experiment: Steady state kinetics of substrate hydrolysis, HuBChE
Assay type: biochemical, human
Details: other: HuBChE, equation 1, 50 mM sodium phosphate pH 8.0, 22 °C

B1: HuBChE (Homo sapiens) (protein)
chain: EDDIIIATKNGKVRGMNLTVFGGTVTAFLGIPYAQPPLGRLRFKKPQSLTKWSDIWNATKYANSCCQNIDQSFPGFHGSEMWNPNTDLSEDCLYLNVWIPAPKPKNATVLIWIYGGGFQTGTSSLHVYDGKFLARVERVIVVSMNYRVGALGFLALPGNPEAPGNMGLFDQQLALQWVQKNIAAFGGNPKSVTLFGESAGAASVSLHLLSPGSHSLFTRAILQSGSFNAPWAVTSLYEARNRTLNLAKLTGCSRENETEIIKCLRNKDPQEILLNEAFVVPYGTPLSVNFGPTVDGDFLTDMPDILLELGQFKKTQILVGVNKDEGTAFLVYGAPGFSKDNNSIITRKEFQEGLKIFFPGVSEFGKESILFHYTDWVDDQRPENYREALGDVVGDYNFICPALEFTKKFSEWGNNAFFYYFEHRSSKLPWPEWMGVMHGYEIEFVFGLPLERRDNYTKAEEILSRSIVKRWANFAKYGNPNETQNNSTSWPVFKSTEQKYLTLNTESTRIMTKLRAQQCRFWTSFFPKVLEMTGNIDEAEWEWKAGFHRWNNYMMDWKNQFNDYTSKKESCVGL
Km: 31 ± 4 µM | kcat: 23±2 x10^3 min^−1 | kcat/Km: 697±14 ×10^3 min^−1 mM^−1
